According to US20200223906A1 (Adimab, published 2020):

Columns and labels:
[1] = target: T1, RSV F subtype B, furin-cleaved ectodomain stabilized in the postfusion conformation (F ΔFP) (Respiratory syncytial virus subtype B); test: BLI, IgG on AHQ sensor, 100 nM antigen
T1 construct: extracellular domain; Trimeric soluble antigen; also called Postfusion subtype B

[2] = target: T2, RSV F subtype A, furin-cleaved ectodomain stabilized in the postfusion conformation (F ΔFP) (Respiratory syncytial virus subtype A, UniProt P03420 26-109; P03420 147-524); test: BLI, IgG on AHQ sensor, 100 nM antigen
T2 construct: extracellular domain; Trimeric soluble antigen; also called Postfusion subtype A

[3] = target: RSV F protein of subtype A (strain A2) on recombinant mKate-RSV virus (Respiratory syncytial virus subtype A …, UniProt P03420 26-574); test: cell-based or functional assay
[4] = target: RSV F protein of subtype B (18537) on recombinant mKate-RSV virus (Respiratory syncytial virus subtype B …, UniProt P13843 26-574); test: cell-based or functional assay
[5] = target: T3, RSV F subtype B, furin-cleaved ectodomain stabilized in the prefusion conformation (DS-Cav1) (Respiratory syncytial virus subtype B); test: BLI, IgG on AHQ sensor, 100 nM antigen
T3 construct: extracellular domain; Trimeric soluble antigen; also called Prefusion subtype B

[6] = target: T4, RSV F subtype A, furin-cleaved ectodomain stabilized in the prefusion conformation (DS-Cav1) (Respiratory syncytial virus subtype A, UniProt P03420 26-524); test: BLI, IgG on AHQ sensor, 100 nM antigen
T4 construct: extracellular domain; Trimeric soluble antigen; also called Prefusion subtype A

Binder	Kd [1]	Kd [2]	Neut IC50 (µg/ml) subtype A [3]	Neut IC50 (µg/ml) subtype B [4]	Kd [5]	Kd [6]
ADI-18895 (antibody, V domains shown, full-length IgG from yeast; also called Antibody Number 250; Ab # 250) VH: QVQLVQSGPEVKKTRESLKIYCKGSGYSFISHWIGWVRQKPGKGLEWMGIIYPGDSDTRYSPSFQGQVAISADKSINTAYLQWSSLKSSDTAIYYCASVMLRGIMWGQGTLVTVSS VL: DIRLTQSPSSLSASVGDRVTITCQASQDISKYLNWYQQKPGKAPKLLIYDASNLETGVPSRFSGSGSGTDFTFTISSLQPEDIATYYCQPYDNLPPPLTFGGGTKLEIK	0.486 nM	2.37 nM	2.3 µg/mL	> 10 µg/mL		
ADI-18942 (antibody, V domains shown, full-length IgG from yeast; also called Antibody Number 295; Ab # 295) VH: QVQLQESGPGRVKPSQTLSLTCTVSGVSVTINDYYWTWLRQSPGKGLEWIGNIYNSGSTYQNPSLQSRVTMSVDTAKNHFSLKLTSVTAADTAVYYCARDLGTANNYYFGMDVWGLGTTVTVSS VL: EIVMTQSPATLSLSPGERATLSCRASQSVSTYLAWYQQKPGQAPRLLIYNGSNRVTGTPARFSGSGSGTDFTLTISSVEPEDFAVYYCQQRSNWPPYTFGQGTKVEIK	0.258 nM	0.281 nM	0.374 µg/mL	0.614 µg/mL	0.512 nM	0.865 nM
ADI-18897 (antibody, V domains shown, full-length IgG from yeast) VH: EVQLVESGGGLVQPGGSLRLSCAASGFTIGTYWMSWVRQAPGKGLEWVANIKPDGSEQYYGDSVKGRFTISRDNAKNSLYLQMHSLRAEDAAVFYCARDTPDVLRHLEWPPVGAFDIWGQGTTVTVSS VL: EIVMTQSPDSLAVSLGERATINCKSSQSLFYSSTNQHYLAWYQQKPGQPPELLIYWASIRESGVPDRFSGSGSGTDFTLTISSLQAADVAVYYCQQYYSSPQTFGQGTKVEIK	0.185 nM		0.288 µg/mL	0.762 µg/mL	1.53 nM	
ADI-18918 (antibody, V domains shown, full-length IgG from yeast) VH: QVQLVQSGAEVKKPGESLKISCKGSGYSFSSFWIGWVRQMPGKGLEWMGIIYPGDSDTRYSPSFQGQVTMSADTSINTAYLQWNSVKASDTAIYYCARLPVGSYYYFNLWGRGTLVTVSS VL: EIVMTQSPATLSVSPGESATLFCRASQSISSDLAWYQQRPGQAPRLLIYDASTRATGVPARFSATGSEAEFTLTISGLQSEDFAVYYCQQYNNWLSWTFGQGTKLEIK	0.409 nM	0.567 nM	0.377 µg/mL	4.59 µg/mL		
ADI-18976 (antibody, V domains shown, full-length IgG from yeast) VH: EVQLVETGPGLVKPSETLSLTCTVSGDSISGYYWSWIRQSPGKGLEWIGYIYYRGSTDYNPSLKSRVTISVDTSKNQFSLKLSSVTAADTAVYYCARDNKHHDSGNYYAYFDHWGQGTLVTVSS VL: DIVMTQSPSSLSASVGDRVTITCRASQNINTFLNWYQHKPGKAPKLLIYGASRLQSGVPSRFTGSGSGTDFTLTISSLQPEDFATYSCQQSYTTRLTFGGGTKVEIK	0.209 nM		6.29 µg/mL	10.6 µg/mL	1.24 nM	
ADI-18970 (antibody, V domains shown, full-length IgG from yeast; also called Antibody Number 318; Ab # 318) VH: QVQLQESGPRLVKPSQTLSLTCTVSGGSISSGDYYWSWIRQPPGKGLEWIGYIYYSGSTHYNPSLKSRVSMSVDTAKNQFSLKLTSVTAADTAVYYCARDIGYGDHGTGSYYYGIEDWGQGTTVTVSS VL: DIVMTQTPATLSLSPGDRATLSCRASQNIMSYLAWYQHKPGQPPRLLIYDASYRAAGIPARFSGSGSGTDFTLTISSLEPEDFAVYYCQQRTNWITFGQGTRLEIK	0.412 nM		> 10 µg/mL	0.333 µg/mL	0.445 nM	
ADI-18924 (antibody, V domains shown, full-length IgG from yeast) VH: QVQLVQSGAEVKKPGESLKISCQGSGYSFSSFWIVWVRQMPGKGLEWMGSIYPGDSDTRYTPSFQGQVTISADKSTSTAYLQWNSLKPSDTAMYYCARCSLSCDYYGVNLWGQGTTVTVSS VL: QSVVTQPPSVSGAPGQRVTISCSGSSSNIGARSDVHWYQQLPGKAPKLLIYGNTNRPLGVPDRFSGSTSGTSASLAISGLQAEDEGYYYCQSYDSSLSGFYVFGTGTKLTVL	0.321 nM	0.411 nM	0.572 µg/mL	1.07 µg/mL		6.48 nM
ADI-18909 (antibody, V domains shown, full-length IgG from yeast; also called Antibody Number 264; Ab # 264) VH: QVQLQESGPGLVKPSQTLSLTCTVSGRFLNSGDYYWSWIRQSPGKGLEWLGYIHHSGNTYYNPSLKSRLTISLDMSKNQFSLKLSSVTAADTAVYYCARDLGKPLWDGHYYYGVDVWGQGTTVTVSS VL: DIVMTQSPGTLSLSPGERATLSCRTSQNVNSNYLAWYQHKPGQAPRLLIYGASSRVTGIPDRFSGSGSGTDFTLTITRVESEDFAVYYCQVYSSSPPITFGQGTKVEIK	0.225 nM		0.11 µg/mL	0.169 µg/mL	0.288 nM	
ADI-18887 (antibody, V domains shown, full-length IgG from yeast; also called Antibody Number 242; Ab # 242) VH: QVQLVQSGAEVKRPGSSVKVSCKASGGTFSSYALSWVRQAPGQGLEWIGGIIPMHRVTNYAQKFRGRVTISADTSTSTAYLEVNSLRVEDTAMYYCARVFFGTCGGASCFPSDLWGQGTLVTVSS VL: EIVLTQSPSFVSASVGDGVTITCRASQAISSYLAWYQQKPGQAPKLLIYAASTLQGGVPSRFSGSGSGTHFTLTISSLQPEDFATYYCQQLHSDFQTFGPGTKVEIK	0.549 nM		1.11 µg/mL	> 10 µg/mL	12.2 nM	
ADI-18941 (antibody, V domains shown, full-length IgG from yeast) VH: EVQLVESAAEVKKPGESLKISCKGSGYSFASHWIGWVRQMPGKGLELMGFIYPGDSDTRYNPSFQGQVTISADKSISTAYLQWTRLKASDTAMYYCGQAVAGGEYFHHWGQGTLVTVSS VL: DIVMTQSPATLSVSPGERATLSCRASQSLGSDLAWYQQKPGQTPRLLIYDASTRATGIPARFSGSGSGTEFTLTISSLQSEDFAVYYCQHYNNWPRGFGQGTKVEIK	0.645 nM	19.1 nM	> 10 µg/mL	> 10 µg/mL		
ADI-18973 (antibody, V domains shown, full-length IgG from yeast) VH: QVQLVQSGPALVKPTQTLTLTCTFGGFSLSRHGMRVTWIRQAPGKALEWLGHIDWDDDKFYRTSLKTRLTISKDPSNNEVVLKMTNMDHVDTATYYCALMRPFWSRDDYYYSIAVWGKGTTVTVSS VL: DIVLTQSPGTLSLSPGDRATLSCRASQSVGSGYVTWYQQKPGQAPRLLIYGASNRAEGIPDRFSGSGSGTDFTLTISGLESEDFVIYYCQLYHRSPGSASQTVWTFGQGTKVEIK	0.394 nM		9.61 µg/mL	6.27 µg/mL	2.63 nM	
ADI-18911 (antibody, V domains shown, full-length IgG from yeast) VH: QVQLVESGAEARKPGESLKISCKASGYSFTNYWIGWVRQMPGKGLEWMGVIYPADSDTRYSPSFKGQVTISADKSISTAYLQWTRLKASDTAVYFCARLGIGAAARNYWGQGTLVTVSS VL: DIQVTQSPSSLSASVGDRVTITCQASQDISDSLNWYQQKPGKAPNLLIYDASKSETGVPSRFSGSGSGTDFTFTISSLQPEDLATYYCLQFDNLPPTFGQGTRLEIK	0.28 nM	0.353 nM	0.301 µg/mL	4.85 µg/mL		
ADI-18933 (antibody, V domains shown, full-length IgG from yeast) VH: QVQLVESGAEVKKPGASVKVACTASGYAFTNYNIHWVRLAPGQGLEWMAIINPGSGGTDYSEKFQGRLTLTSDTSTSTVYMTLGSLRYEDTAFYYCARRGYPDSGSYPLDYWGQGTLVTVSS VL: DIVMTQSPSSLSASLGDRVTITCRAGRSIATYLNWYQQKPGKAPKLLIYGASSLQSGVPSRFSGSGSGTHFTLTISSLQPEDFATYYCQQSYIRPITFGGGTKVEIK	0.616 nM	20 nM	0.075 µg/mL	0.137 µg/mL		
ADI-18878 (antibody, V domains shown, full-length IgG from yeast; also called Antibody Number 235; Ab # 235) VH: QVQLQESGPRLVKPSQTLSLICDVSGGSIGSGDHYWSWIRQPPGKGLEWIGYIYYSGTTYYNPSLKSRVTISADTSKNQLSLKLSSVTAADTAIYFCARDGGYDHVWGTHRYFDKWGQGTLVTVSS VL: EIVLTQSPGTLSLSPGERATLSCRASQSVSNSYLAWYQQKPGQAPRLLIYGVSTRATGIPDRFSGSGSGTDFTLTISRLEPEDFAMYHCQQYGASPWTFGQGTKVDIK	0.388 nM		> 10 µg/mL	8.31 µg/mL	5.82 nM	
ADI-18885 (antibody, V domains shown, full-length IgG from yeast; also called Antibody Number 241; Ab # 241) VH: EVQLQESGPGLVKPLQTLSVTCSVSGGSISSGDNYWSWIRQRPGKGLEWIGYIYYSGTTYYNPSLKSRVTISADRSKNQFSLKMNSLSAADTAVYYCARDGGYDHIWGTHRYFALWGQGTLVTVSS VL: ETTLTQSPGTLSLSPGERATLSCRASQSVNSDYLAWYQQKLGQAPRLLIYGVSNRATGIPDRFTGSGSGTDFTLTISRLEPEDFAVYHCQQYGTSPWTFGQGTKVEIK	0.307 nM		0.376 µg/mL	8.63 µg/mL	3.89 nM	
ADI-18938 (antibody, V domains shown, full-length IgG from yeast; also called Antibody Number 291; Ab # 291) VH: EVQLLESGGGLVQPGGSLRLSCAASGFTFSNYWMHWVRQAPGKGLVWVSRISGDGSDTTYADSVEGRFTISRDNARSTLYLQLNSLTGDDTAVYYCARDLWTTSPYFDLWGQGTLVTVSS VL: EIVLTQSPGTLSASIGDRVTITCRASQSLNGWLAWYQQKPGKAPRLLIYKSSSLESGVPSRFSGSASGTEFTLTISSLQPDDFATYYCQQYNSWAFGQGTKVDVK	0.168 nM	0.216 nM	0.837 µg/mL	4.25 µg/mL	0.15 nM	0.165 nM
